Data as given in PMC3310290 (2012).
Positions of bridges follow the written chain, without caps; N, C: chain ends. No end group written: not given here. fluorescein = Fluorescein label on the N-terminus, attached via Aca

Columns and labels:
fibrin = biological target: T1, fibrin (Homo sapiens, UniProt P02671); test: fibrin plate depletion assay
T1 chain 1: ADSGEGDFLAEGGGVR
T1 chain 2: QGVNDNEEGFFSAR
T1 chain 3: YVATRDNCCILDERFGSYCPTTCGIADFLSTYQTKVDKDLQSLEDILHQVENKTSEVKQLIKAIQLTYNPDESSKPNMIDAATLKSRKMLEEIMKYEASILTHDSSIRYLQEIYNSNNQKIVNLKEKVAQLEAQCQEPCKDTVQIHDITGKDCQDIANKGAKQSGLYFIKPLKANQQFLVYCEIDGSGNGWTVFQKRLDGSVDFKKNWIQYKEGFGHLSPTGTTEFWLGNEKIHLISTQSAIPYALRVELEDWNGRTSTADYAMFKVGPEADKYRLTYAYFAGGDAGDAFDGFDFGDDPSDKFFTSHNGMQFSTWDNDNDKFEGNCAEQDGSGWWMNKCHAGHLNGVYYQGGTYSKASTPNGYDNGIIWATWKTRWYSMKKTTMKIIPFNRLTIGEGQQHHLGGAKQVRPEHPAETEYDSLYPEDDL

fibrinogen [1] = biological target: T2, fibrinogen (Homo sapiens, UniProt P02671); test: ITC
T2 chain 1: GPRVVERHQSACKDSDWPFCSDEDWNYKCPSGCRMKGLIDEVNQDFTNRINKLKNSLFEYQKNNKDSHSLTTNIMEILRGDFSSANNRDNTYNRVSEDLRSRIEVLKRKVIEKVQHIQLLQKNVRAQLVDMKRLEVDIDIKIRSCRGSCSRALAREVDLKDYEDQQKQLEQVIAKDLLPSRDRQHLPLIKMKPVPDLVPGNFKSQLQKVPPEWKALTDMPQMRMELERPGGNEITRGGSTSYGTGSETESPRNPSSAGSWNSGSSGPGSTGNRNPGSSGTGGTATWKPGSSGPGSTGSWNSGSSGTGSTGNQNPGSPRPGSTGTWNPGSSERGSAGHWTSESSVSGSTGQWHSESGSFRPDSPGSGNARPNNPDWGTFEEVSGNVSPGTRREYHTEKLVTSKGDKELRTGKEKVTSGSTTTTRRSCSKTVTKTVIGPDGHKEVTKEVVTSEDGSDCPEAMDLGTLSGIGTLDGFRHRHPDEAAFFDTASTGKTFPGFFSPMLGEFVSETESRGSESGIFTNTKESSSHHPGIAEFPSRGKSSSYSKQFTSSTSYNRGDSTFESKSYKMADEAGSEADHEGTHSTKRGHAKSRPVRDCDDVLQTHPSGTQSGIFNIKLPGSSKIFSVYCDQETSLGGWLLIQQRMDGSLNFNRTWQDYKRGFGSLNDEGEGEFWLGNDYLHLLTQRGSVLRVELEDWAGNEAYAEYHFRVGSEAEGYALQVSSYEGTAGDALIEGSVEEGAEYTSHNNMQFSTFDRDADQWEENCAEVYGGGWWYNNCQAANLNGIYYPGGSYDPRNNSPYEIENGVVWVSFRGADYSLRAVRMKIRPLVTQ
T2 chain 2: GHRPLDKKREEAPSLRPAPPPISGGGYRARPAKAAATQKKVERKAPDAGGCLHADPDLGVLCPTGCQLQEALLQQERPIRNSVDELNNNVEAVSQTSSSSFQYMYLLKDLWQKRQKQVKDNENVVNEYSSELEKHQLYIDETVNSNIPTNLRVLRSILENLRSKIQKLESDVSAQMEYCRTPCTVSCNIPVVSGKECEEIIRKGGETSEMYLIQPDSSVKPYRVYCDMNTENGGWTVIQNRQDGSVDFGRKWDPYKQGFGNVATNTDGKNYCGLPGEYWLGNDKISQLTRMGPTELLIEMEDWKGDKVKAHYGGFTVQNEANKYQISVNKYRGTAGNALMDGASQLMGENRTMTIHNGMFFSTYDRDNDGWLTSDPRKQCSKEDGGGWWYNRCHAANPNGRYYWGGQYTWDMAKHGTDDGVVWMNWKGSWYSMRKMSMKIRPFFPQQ
T2 chain 3: T1 chain 3

DD(E) DD(E) [2] = biological target: T3, DD(E) DD(E) (Homo sapiens, UniProt P02671); test: FP displacement
T3 chain 1: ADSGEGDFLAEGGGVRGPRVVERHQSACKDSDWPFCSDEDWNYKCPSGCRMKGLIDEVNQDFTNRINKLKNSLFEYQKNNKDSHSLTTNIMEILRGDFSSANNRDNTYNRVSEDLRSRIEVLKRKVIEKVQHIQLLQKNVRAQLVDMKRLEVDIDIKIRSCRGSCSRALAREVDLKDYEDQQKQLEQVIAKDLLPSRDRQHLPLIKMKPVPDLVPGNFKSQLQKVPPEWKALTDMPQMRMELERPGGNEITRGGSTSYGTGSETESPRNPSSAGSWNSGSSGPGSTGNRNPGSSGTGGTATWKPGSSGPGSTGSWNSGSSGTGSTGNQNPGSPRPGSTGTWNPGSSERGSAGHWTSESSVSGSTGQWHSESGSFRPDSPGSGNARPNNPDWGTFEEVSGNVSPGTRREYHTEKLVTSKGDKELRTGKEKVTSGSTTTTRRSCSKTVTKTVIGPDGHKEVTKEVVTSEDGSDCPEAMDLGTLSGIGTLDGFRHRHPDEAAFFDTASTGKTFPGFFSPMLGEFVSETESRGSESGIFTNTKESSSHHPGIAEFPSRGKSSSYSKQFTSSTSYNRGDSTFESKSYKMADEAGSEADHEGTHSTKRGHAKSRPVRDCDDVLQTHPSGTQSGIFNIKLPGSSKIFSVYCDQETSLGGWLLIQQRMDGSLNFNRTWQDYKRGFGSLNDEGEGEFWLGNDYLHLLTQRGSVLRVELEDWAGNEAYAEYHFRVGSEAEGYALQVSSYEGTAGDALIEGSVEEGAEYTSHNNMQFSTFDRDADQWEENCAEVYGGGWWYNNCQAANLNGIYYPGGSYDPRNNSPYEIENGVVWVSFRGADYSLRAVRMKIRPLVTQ
T3 chain 2: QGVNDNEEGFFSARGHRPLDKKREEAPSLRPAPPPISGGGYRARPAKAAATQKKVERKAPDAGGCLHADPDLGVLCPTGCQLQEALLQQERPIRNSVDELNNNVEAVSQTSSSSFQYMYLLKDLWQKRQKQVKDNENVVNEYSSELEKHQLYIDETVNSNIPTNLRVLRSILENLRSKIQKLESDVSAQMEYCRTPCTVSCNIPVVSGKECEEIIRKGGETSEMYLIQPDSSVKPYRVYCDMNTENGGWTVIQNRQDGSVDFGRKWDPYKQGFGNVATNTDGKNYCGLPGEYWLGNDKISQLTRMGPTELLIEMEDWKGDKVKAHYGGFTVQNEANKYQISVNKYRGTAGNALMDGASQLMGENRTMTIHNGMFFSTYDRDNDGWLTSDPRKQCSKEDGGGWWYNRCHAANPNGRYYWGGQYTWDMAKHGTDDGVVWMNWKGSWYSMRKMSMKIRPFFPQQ
T3 chain 3: T1 chain 3

fibrinogen [3] = biological target: T2, fibrinogen; test: fluorescence polarization
DD(E) DD(E) [4] = biological target: T3, DD(E) DD(E); test: fluorescence polarization
fibrinogen [5] = biological target: T2, fibrinogen; test: FP displacement

B1: Tn6-2a (peptide)
chain: WECPYGLCWIQ
Kd (fibrin): 2.9 µM | Kd (fibrinogen [1]): > 50 µM

B2: Tn7-3a-Gd (peptide)
chain: LPCDYYGTCLD-NH2
modifications: disulfide 3-9; not fully specified (N-terminus); also: Gd(III) chelated by DTPA
Ki (DD(E) DD(E) [2]): 2.9 µM

B3: Tn6-1-Gd (peptide)
chain: GGWFHCPYDLCHIL-NH2
modifications: disulfide 6-11; not fully specified (N-terminus); also: Gd(III) chelated by DTPA
Kd (fibrin): 3.1 µM

B4: Tn7-3 (peptide)
chain: LPCDYYGTCLD
Kd (fibrinogen [1]): > 20 µM

B5: Tn7-3b-Gd (peptide)
chain: GLPCDYYGTCLD-NH2
modifications: disulfide 4-10; not fully specified (N-terminus); also: Gd(III) chelated by DTPA
Kd (fibrin): 8.4 µM

B6: Tn6-2b-Fl (peptide)
chain: {fluorescein-Aca}-QWECPYGLCWIQ
modifications: cysteine pairing not given here
Kd (fibrinogen [3]): 22 µM | Kd (DD(E) DD(E) [4]): 0.057 µM

B7: Tn6-1 (peptide)
chain: WFHCPYDLCHIL
Kd (fibrinogen [5]): > 200 µM
